The values that follow come from publication PMC6612524.

For this assay, the target named is human plasma fibronectin (human). The assay is described as follows: ITC; 35 μM peptide titrated into the cell with 2.7 μM human plasma fibronectin; PBS pH 7.4; 25 °C; one set of sites model; duplicates.
Chain of human plasma fibronectin (human) (P02751 other isoform, or with tags, fused parts or gaps): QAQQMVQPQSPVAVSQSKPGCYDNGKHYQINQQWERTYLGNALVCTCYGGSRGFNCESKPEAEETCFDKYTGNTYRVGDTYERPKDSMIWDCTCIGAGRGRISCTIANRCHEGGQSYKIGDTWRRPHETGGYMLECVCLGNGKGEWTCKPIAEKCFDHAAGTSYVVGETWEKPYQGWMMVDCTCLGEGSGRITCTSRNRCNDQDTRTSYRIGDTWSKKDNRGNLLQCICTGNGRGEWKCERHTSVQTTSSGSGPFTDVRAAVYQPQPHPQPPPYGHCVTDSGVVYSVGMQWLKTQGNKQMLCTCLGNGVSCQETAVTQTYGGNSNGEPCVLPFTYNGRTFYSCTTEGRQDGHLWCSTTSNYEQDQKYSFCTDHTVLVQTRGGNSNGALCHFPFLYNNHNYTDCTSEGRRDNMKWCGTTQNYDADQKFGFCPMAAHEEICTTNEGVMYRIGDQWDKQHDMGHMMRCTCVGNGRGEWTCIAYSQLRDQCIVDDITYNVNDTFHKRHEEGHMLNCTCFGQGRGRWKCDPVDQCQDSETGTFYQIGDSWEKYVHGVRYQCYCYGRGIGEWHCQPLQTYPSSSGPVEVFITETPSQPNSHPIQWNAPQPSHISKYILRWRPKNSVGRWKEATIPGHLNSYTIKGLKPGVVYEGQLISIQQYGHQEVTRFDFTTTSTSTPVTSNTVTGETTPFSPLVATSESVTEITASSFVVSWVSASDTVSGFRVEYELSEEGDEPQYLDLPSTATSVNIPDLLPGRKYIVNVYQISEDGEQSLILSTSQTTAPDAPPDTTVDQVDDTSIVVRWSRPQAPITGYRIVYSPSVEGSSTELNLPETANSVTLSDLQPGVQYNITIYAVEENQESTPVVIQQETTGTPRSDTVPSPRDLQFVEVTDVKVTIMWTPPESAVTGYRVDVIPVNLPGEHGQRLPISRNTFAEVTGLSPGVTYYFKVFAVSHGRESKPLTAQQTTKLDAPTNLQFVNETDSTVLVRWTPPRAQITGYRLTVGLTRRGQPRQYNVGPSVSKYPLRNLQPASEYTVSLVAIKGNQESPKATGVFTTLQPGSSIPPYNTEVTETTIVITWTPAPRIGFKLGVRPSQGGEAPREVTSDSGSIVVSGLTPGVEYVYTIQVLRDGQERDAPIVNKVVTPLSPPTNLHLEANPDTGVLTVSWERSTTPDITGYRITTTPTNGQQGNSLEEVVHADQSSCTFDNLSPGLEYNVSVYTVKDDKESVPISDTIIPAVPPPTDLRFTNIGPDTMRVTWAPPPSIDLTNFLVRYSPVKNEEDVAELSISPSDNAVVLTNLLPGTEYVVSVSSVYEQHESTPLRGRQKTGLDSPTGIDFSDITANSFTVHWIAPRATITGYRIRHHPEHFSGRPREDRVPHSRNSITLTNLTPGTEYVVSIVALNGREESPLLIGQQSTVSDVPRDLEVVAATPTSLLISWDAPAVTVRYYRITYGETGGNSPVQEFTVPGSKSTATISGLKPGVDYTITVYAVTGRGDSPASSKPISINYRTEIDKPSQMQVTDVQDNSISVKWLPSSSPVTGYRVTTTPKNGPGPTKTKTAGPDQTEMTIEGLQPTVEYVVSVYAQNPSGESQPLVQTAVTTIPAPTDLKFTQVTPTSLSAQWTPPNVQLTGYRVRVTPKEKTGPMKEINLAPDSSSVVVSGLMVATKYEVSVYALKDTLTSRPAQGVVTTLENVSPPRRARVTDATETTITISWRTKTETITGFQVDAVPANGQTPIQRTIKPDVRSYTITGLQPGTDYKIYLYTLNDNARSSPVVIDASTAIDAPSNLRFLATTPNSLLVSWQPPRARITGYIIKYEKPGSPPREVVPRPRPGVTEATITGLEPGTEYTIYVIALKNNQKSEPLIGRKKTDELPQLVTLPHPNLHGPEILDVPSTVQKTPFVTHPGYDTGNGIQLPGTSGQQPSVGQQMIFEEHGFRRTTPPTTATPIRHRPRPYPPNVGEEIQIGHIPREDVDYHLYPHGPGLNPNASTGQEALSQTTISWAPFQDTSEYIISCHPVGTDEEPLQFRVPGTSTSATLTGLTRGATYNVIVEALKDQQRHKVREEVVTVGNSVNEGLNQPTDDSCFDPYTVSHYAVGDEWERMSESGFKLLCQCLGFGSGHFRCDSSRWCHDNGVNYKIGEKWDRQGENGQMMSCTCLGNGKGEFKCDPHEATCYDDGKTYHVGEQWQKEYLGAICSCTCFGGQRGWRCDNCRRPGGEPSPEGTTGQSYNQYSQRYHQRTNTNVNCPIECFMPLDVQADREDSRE

Regarding “Functional Upstream Domain (FUD) peptide (peptide; other documents disagree on this pair)”, the Kd (commonly the concentration at which binding is half-saturated) was determined as 4.3 nM; the dH is -33 kcal/mol; the stoichiometry N (as a rule, the number of molecules, sites or subunits per partner or assembly) came out at 1.47.
For “singly sulfo-Cy5 labeled FUD peptide (peptide; other documents disagree on this pair)” the same measures were 4.7 nM, -35.8 kcal/mol and 1.48.
Taken in the same sequence, the figures for “sulfo-Cy5 labeled 20 kDa PEG-FUD (peptide; other documents disagree on this pair)” were 13 nM, -35 kcal/mol and 1.5.
